According to patent US20250092124A1 (YUNNAN BAIYAO GROUP, published 2025):

Tests used:
[1] = molecular target: T1, GDF15-HIS (ACROBiosystems, CAT #: GD5-H5149) (human, UniProt Q99988 197-308); assay: ELISA on human GDF15, antibody after 2 weeks at 37 °C in plasma
T1 construct: Bought protein; also called GDF15 (ACROBiosystems, GD5-H5149); human GDF15; not shown: His tag
T1 sequence (looked up): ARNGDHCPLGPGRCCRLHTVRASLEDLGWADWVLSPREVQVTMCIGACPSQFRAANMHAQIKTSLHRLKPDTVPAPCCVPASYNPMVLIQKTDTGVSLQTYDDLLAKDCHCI
Method: […] of the antibodies to be tested (final concentration 1 mg/ml) were added to 200 μl of plasma and PBS, respectively, tightly sealed and placed at 37° C. for 2 weeks. The change of protein binding activity was detected by ELISA.

[2] = molecular target: T1, GDF15-HIS (ACROBiosystems, CAT #: …); assay: ELISA in stability test, antibody after 5 freeze-thaw cycles; coated antigen not named
Method: An appropriate amount of each antibody was taken and adjusted to 10 mg/mL, followed by freezing at −80° C. for 10 min, and placing in an ice-water mixture to slowly thaw. The above procedure was repeated 5 times. Protein aggregation was detected using SEC-HPLC, and protein binding activity change was detected by ELISA.

[3] = molecular target: T1, GDF15-HIS (ACROBiosystems, CAT #: …); assay: cell-based or functional assay
GDF15-mFC protein = molecular target: T2, GDF15-mFC protein (human; mouse, UniProt Q99988 197-308); assay: competitive ELISA, GFRAL-HIS coated (competitor), GDF15-mFc 0.3 µg/ml pre-incubated with antibody
T2 construct: extracellular domain;domain: IgG2a-FC; also called GDF15-mFc fusion protein
T2 sequence (looked up): T1 sequence (looked up)
Method: GFRAL-HIS protein (ACROBiosystems, GFA-H52H3) was dissolved in PBS at a concentration of […] and was used to coat ELISA 96-well plate one day before blocking the plate with 2% BSA in PBS. 53E5 (hz), and control antibodies Ponsegromab and AV380-hIgG1 were 3.16-fold diluted for 10 gradients with a starting concentration of 20 μg/ml. At the same time, GDF15-mFc protein was added at a final concentration of 0.3 μg/ml. After incubation at room temperature for 1 hour, the mixtures were added to 96-well plate coated with GFRAL-HIS. After incubated at room temperature for 1 hour, the plate was washed and then HRP-anti-mouse IgG was added to the plate. After incubation at room temperature for 1 hour, the HRP enzyme activity (OD450) was detected. The HRP enzyme activity represents the relative amount of GDF15-mFc protein bound to GFRAL. The OD450 values and antibody concentrations were plotted. The dose-effect curve was fitted using the log (agonist) vs. response-variable slope (four-parameter) Logistic model to calculate IC50.

[4] = molecular target: T1, GDF15-HIS (ACROBiosystems, CAT #: …); assay: cell-based or functional assay; remark: listed apart in the source
[5] = molecular target: T1, GDF15-HIS (ACROBiosystems, CAT #: …); assay: BLI (ForteBio Octet), antibody immobilised, GDF15 200-6.25 nM
[6] = molecular target: T1, GDF15-HIS (ACROBiosystems, CAT #: …); assay: ELISA in stability test, antibody before treatment; coated antigen not named; before treatment (unstressed antibody, 10 mg/mL)
GDF1 (R&D, 6937-GD-010) = molecular target: T3, GDF1 (R&D, 6937-GD-010) (UniProt P27539 254-372); assay: ELISA, GDF1 coated at 1 µg/ml, HRP-anti-human IgG
T3 sequence (looked up): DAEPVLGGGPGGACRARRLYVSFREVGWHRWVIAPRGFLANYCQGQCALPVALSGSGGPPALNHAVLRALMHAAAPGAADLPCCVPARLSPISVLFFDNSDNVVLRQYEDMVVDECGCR
Method: GDF15 (ACROBiosystems, GDS-HS149), GDF1 (R&D, 6937-GD-010), and GDF3 (R&D, 5754-G3-010) proteins were dissolved in PBS at a concentration of 1 μg/ml and were used to coat ELISA 96-well plate. On the next day, the 96-well plate was blocked with 2% BSA in PBS for 1 hour. After removing the blocking solution, GDF15 antibody 53E5 (hz), control antibody Ponsegromab and irrelevant hIgG1 were added at 4 μg/ml. After incubation at room temperature for 1 hour, the plate was washed, and then HRP-anti-human IgG was added. After incubation at room temperature for 1 hour, the HRP enzyme activity signal (OD450) was detected. The OD450 value is the relative signal of the antibody binding amount.

[7] = molecular target: T1, GDF15-HIS (ACROBiosystems, CAT #: …); assay: ELISA in stability test, antibody after 40 °C for 1 week; coated antigen not named
Method: An appropriate amount of each antibody was taken and adjusted to 10 mg/mL, and was placed at 40° C. for 1 and 2 weeks. Protein aggregation was detected using SEC-HPLC, and protein binding activity change was detected by ELISA.

B1: 53E5(hz) (antibody, human IgG1, kappa, V domains shown)
VH: QVQLQESGPGLVKPSETLSLTCTFSGFSLSTSGMGVGWIRQPPGKGLEWLAHILWDDVKRYNPALKSRLTISKDSSKSQISLKLSSVTAADTAVYYCVQMAWDWFAYWGQGTTVTVSS
VL: DIQMTQSPSSLSASVGDRVTITCKASQNVDTNVAWYQQKPGQSPKALIYSASYRSSGVPSRFSGSGSGTDFTLTISSLQPEDFATYYCQQYHSYPTFGQGTRLEIKR
notes: also called S3E5 (hz); humanized antibody 53E5
EC50 [1]: 0.0372 µg/mL | EC50 [2]: 0.0648 µg/mL | EC50 (read off the curve) of GDF15-His for luciferase induction with 0.1 µg/ml antibody present [3]: ~0.02 µg/mL | IC50 (GDF15-mFC protein): 0.253 µg/mL | Bottom (luciferase activity fold, fitted curve), HEK293 SRE-LUC2-cRET-GFRAL reporter cells [4]: 1.1 | IC50, luciferase in HEK293 SRE-LUC2-cRET-GFRAL reporter cells stimulated with GDF15-His 5 ng/ml [4]: 0.0225 µg/mL | Kd [5]: 0.293 nM | koff [5]: 0.000271 s⁻¹ | kon [5]: 923000 M⁻¹ s⁻¹ | EC50 [6]: 0.0588 µg/mL | binding result (GDF1 (R&D, 6937-GD-010)): no binding (tested: 4 µg/ml) | EC50 [7]: 0.0641 µg/mL
